Results: ChEMBL document CHEMBL1154868 (J Nat Prod, 2010)

Columns and labels:
[1] = physchem; details: octanol/water
Description: Lipophilicity, log P of the compound

[2] = substrate: Cc1ncc(CO)c(C=O)c1O; details: Homo sapiens
Description: (§1) Activity at human PKH kinase expressed in Escherichia coli by affinity chromatography

[3] = substrate: COCc1c(CO)cnc(C)c1O; details: Homo sapiens
Description: as §1

[4] = substrate: Cc1ncc(CO)c(CO)c1O; details: Homo sapiens
Description: as §1

[5] = substrate: Cc1ncc(CO)c(CN)c1O; details: Homo sapiens
Description: as §1

Cc1ncc(CO)c(C=O)c1O [PYRIDOXAL]
logP [1]: -1.18

B1: Pyridoxal kinase (Homo sapiens), O00764 (protein)
chain: MEEECRVLSIQSHVIRGYVGNRAATFPLQVLGFEIDAVNSVQFSNHTGYAHWKGQVLNSDELQELYEGLRLNNMNKYDYVLTGYTRDKSFLAMVVDIVQELKQQNPRLVYVCDPVLGDKWDGEGSMYVPEDLLPVYKEKVVPLADIITPNQFEAELLSGRKIHSQEEALRVMDMLHSMGPDTVVITSSDLPSPQGSNYLIVLGSQRRRNPAGSVVMERIRMDIRKVDAVFVGTGDLFAAMLLAWTHKHPNNLKVACEKTVSTLHHVLQRTIQCAKAQAGEGVRPSPMQLELRMVQSKRDIEDPEIVVQATVL
Km [2]: 59 µM
Km [3]: 5 µM
Km [4]: 9.9 µM
Km [5]: 130 µM
